These results are taken from article doi:10.1101/2021.04.23.441069.

The target of assay [1] is NyxA (purified, not held on the resin) (Brucella abortus 2308) (UniProt Q2YPD9). Nature of the assay: […].
Assay [2] deals with NyxB (untagged, His tag cleaved with TEV) (Brucella abortus 2308) (UniProt Q2YPZ9). Nature of the assay: […].

What is called stoichiometry N is the number of molecules, sites or subunits per partner or assembly. Take “NyxA (purified, not held on the resin) (from UniProt Q2YPD9 1-129) (natural protein)”: the stoichiometry N in assay [1] was 2.
For the substance “NyxB (untagged, His tag cleaved with TEV) (from UniProt Q2YPZ9 1-134) (natural protein)”, the stoichiometry N in assay [2] was determined as 2.
